One block for each binder: values may come before it. Numbered stars: 1 amine (or outer) side, 2 acyl side, 3 side chain; on linkers, the order of the positions; unused ones are H or OH. * marks the point of attachment. C20 diacid = O=C(O)CCCCCCCCCCCCCCCCCCC(=O)*; C18 diacid = O=C(O)CCCCCCCCCCCCCCCCC(=O)*; γGlu = O=C(O)[C@H](CCC(=O)[*:2])N[*:1]
What was measured:
[1] = biological target: T1, human amylin 3(a) receptor (human calcitonin receptor co-expressed with RAMP-3) (human, UniProt P30988 25-474; O60896 24-148, limits assumed); assay: cell-based or functional assay
T1 sequence (looked up) 1: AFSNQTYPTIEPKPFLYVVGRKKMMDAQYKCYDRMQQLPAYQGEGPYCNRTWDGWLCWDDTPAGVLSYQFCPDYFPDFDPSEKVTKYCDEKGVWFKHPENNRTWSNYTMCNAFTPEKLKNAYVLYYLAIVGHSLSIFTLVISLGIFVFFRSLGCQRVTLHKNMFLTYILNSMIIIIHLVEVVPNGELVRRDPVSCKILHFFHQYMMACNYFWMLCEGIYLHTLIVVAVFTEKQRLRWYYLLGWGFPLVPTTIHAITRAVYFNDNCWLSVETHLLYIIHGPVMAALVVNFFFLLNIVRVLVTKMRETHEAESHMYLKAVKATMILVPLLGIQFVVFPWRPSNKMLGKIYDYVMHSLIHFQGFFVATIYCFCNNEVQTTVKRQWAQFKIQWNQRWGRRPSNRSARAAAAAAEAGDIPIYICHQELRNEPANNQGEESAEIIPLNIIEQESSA
T1 sequence (looked up) 2: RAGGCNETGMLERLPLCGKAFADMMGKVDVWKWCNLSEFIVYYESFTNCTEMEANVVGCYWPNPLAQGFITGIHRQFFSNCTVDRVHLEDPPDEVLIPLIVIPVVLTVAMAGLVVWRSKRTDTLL

[2] = biological target: T2, human calcitonin receptor (human, UniProt P30988 25-474); assay: cell-based or functional assay
T2 sequence (looked up): T1 sequence (looked up) 1

B2: [N-terminal(C20 diacid-gGlu), des1, 9S, 21S, 23Y, 30S, 31G, 33Y]mimylin (peptide)
peptide: {C20 diacid-γGlu}-ASELSTASLGRLSAELHELSTYPRTETGSGSY-NH2
SMILES: CC(C)C[C@H](NC(=O)[C@H](CO)NC(=O)[C@H](C)NC(=O)[C@@H](NC(=O)[C@H](CO)NC(=O)[C@H](CC(C)C)NC(=O)[C@H](CCC(=O)O)NC(=O)[C@H](CO)NC(=O)[C@H](C)NC(=O)CC[C@H](NC(=O)CCCCCCCCCCCCCCCCCCC(=O)O)C(=O)O)[C@@H](C)O)C(=O)NCC(=O)N[C@@H](CCCNC(=N)N)C(=O)N[C@@H](CC(C)C)C(=O)N[C@@H](CO)C(=O)N[C@@H](C)C(=O)N[C@@H](CCC(=O)O)C(=O)N[C@@H](CC(C)C)C(=O)N[C@@H](Cc1c[nH]cn1)C(=O)N[C@@H](CCC(=O)O)C(=O)N[C@@H](CC(C)C)C(=O)N[C@@H](CO)C(=O)N[C@H](C(=O)N[C@@H](Cc1ccc(O)cc1)C(=O)N1CCC[C@H]1C(=O)N[C@@H](CCCNC(=N)N)C(=O)N[C@H](C(=O)N[C@@H](CCC(=O)O)C(=O)N[C@H](C(=O)NCC(=O)N[C@@H](CO)C(=O)NCC(=O)N[C@@H](CO)C(=O)N[C@@H](Cc1ccc(O)cc1)C(N)=O)[C@@H](C)O)[C@@H](C)O)[C@@H](C)O
hAmylin-R funct. EC50 (pM) [1]: 17 pM
hCTR funct. EC50 (pM) [2]: 16 pM

B3: [N-terminal(C18 diacid-gGlu), des1, 6T, 9V, 14T, 21E, 30T, 31G, 32T]mimylin (peptide)
peptide: {C18 diacid-γGlu}-ASELTTAVLGRLTAELHELETLPRTETGTGTP-NH2
SMILES: CC(C)C[C@H](NC(=O)[C@H](CCC(=O)O)NC(=O)[C@H](C)NC(=O)[C@@H](NC(=O)[C@H](CC(C)C)NC(=O)[C@H](CCCNC(=N)N)NC(=O)CNC(=O)[C@H](CC(C)C)NC(=O)[C@@H](NC(=O)[C@H](C)NC(=O)[C@@H](NC(=O)[C@@H](NC(=O)[C@H](CC(C)C)NC(=O)[C@H](CCC(=O)O)NC(=O)[C@H](CO)NC(=O)[C@H](C)NC(=O)CC[C@H](NC(=O)CCCCCCCCCCCCCCCCC(=O)O)C(=O)O)[C@@H](C)O)[C@@H](C)O)C(C)C)[C@@H](C)O)C(=O)N[C@@H](Cc1c[nH]cn1)C(=O)N[C@@H](CCC(=O)O)C(=O)N[C@@H](CC(C)C)C(=O)N[C@@H](CCC(=O)O)C(=O)N[C@H](C(=O)N[C@@H](CC(C)C)C(=O)N1CCC[C@H]1C(=O)N[C@@H](CCCNC(=N)N)C(=O)N[C@H](C(=O)N[C@@H](CCC(=O)O)C(=O)N[C@H](C(=O)NCC(=O)N[C@H](C(=O)NCC(=O)N[C@H](C(=O)N1CCC[C@H]1C(N)=O)[C@@H](C)O)[C@@H](C)O)[C@@H](C)O)[C@@H](C)O)[C@@H](C)O
hAmylin-R funct. EC50 (pM) [1]: 235 pM
hCTR funct. EC50 (pM) [2]: 45 pM

B5: [N-terminal(C20 diacid-gGlu), 4G, 15Q, 21Q, 23Y, 30S, 31G, 32T, 33Y]mimylin (peptide)
peptide: {C20 diacid-γGlu}-EASGLSTAALGRLSQELHELQTYPRTETGSGTY-NH2
SMILES: CC(C)C[C@H](NC(=O)CNC(=O)[C@H](CO)NC(=O)[C@H](C)NC(=O)[C@H](CCC(=O)O)NC(=O)CC[C@H](NC(=O)CCCCCCCCCCCCCCCCCCC(=O)O)C(=O)O)C(=O)N[C@@H](CO)C(=O)N[C@H](C(=O)N[C@@H](C)C(=O)N[C@@H](C)C(=O)N[C@@H](CC(C)C)C(=O)NCC(=O)N[C@@H](CCCNC(=N)N)C(=O)N[C@@H](CC(C)C)C(=O)N[C@@H](CO)C(=O)N[C@@H](CCC(N)=O)C(=O)N[C@@H](CCC(=O)O)C(=O)N[C@@H](CC(C)C)C(=O)N[C@@H](Cc1c[nH]cn1)C(=O)N[C@@H](CCC(=O)O)C(=O)N[C@@H](CC(C)C)C(=O)N[C@@H](CCC(N)=O)C(=O)N[C@H](C(=O)N[C@@H](Cc1ccc(O)cc1)C(=O)N1CCC[C@H]1C(=O)N[C@@H](CCCNC(=N)N)C(=O)N[C@H](C(=O)N[C@@H](CCC(=O)O)C(=O)N[C@H](C(=O)NCC(=O)N[C@@H](CO)C(=O)NCC(=O)N[C@H](C(=O)N[C@@H](Cc1ccc(O)cc1)C(N)=O)[C@@H](C)O)[C@@H](C)O)[C@@H](C)O)[C@@H](C)O)[C@@H](C)O
hAmylin-R funct. EC50 (pM) [1]: 43 pM
hCTR funct. EC50 (pM) [2]: 23 pM

Other lines, results leading:

hAmylin-R funct. EC50 (pM) [1]: 12 pM
hCTR funct. EC50 (pM) [2]: 6 pM
B1: [N-terminal(C18 diacid-gGlu), des1, 5V, 9V, 10V, 20V, 30S, 31G]mimylin (peptide)
peptide: {C18 diacid-γGlu}-ASEVSTAVVGRLSAELHEVATLPRTETGSGSP-NH2
SMILES: CC(C)C[C@H](NC(=O)[C@H](CCCNC(=N)N)NC(=O)CNC(=O)[C@@H](NC(=O)[C@@H](NC(=O)[C@H](C)NC(=O)[C@@H](NC(=O)[C@H](CO)NC(=O)[C@@H](NC(=O)[C@H](CCC(=O)O)NC(=O)[C@H](CO)NC(=O)[C@H](C)NC(=O)CC[C@H](NC(=O)CCCCCCCCCCCCCCCCC(=O)O)C(=O)O)C(C)C)[C@@H](C)O)C(C)C)C(C)C)C(=O)N[C@@H](CO)C(=O)N[C@@H](C)C(=O)N[C@@H](CCC(=O)O)C(=O)N[C@@H](CC(C)C)C(=O)N[C@@H](Cc1c[nH]cn1)C(=O)N[C@@H](CCC(=O)O)C(=O)N[C@H](C(=O)N[C@@H](C)C(=O)N[C@H](C(=O)N[C@@H](CC(C)C)C(=O)N1CCC[C@H]1C(=O)N[C@@H](CCCNC(=N)N)C(=O)N[C@H](C(=O)N[C@@H](CCC(=O)O)C(=O)N[C@H](C(=O)NCC(=O)N[C@@H](CO)C(=O)NCC(=O)N[C@@H](CO)C(=O)N1CCC[C@H]1C(N)=O)[C@@H](C)O)[C@@H](C)O)[C@@H](C)O)C(C)C

hAmylin-R funct. EC50 (pM) [1]: 386 pM
hCTR funct. EC50 (pM) [2]: 66 pM
Binder: {C18 diacid-γGlu}-ASELTTAVLGRLEAELHELTTLPRTETGTGTP-NH2 [[N-terminal(C18 diacid-gGlu), des1, 6T, 9V, 14E, 21T, 30T, 31G, 32T]mimylin]

hAmylin-R funct. EC50 (pM) [1]: 51 pM
hCTR funct. EC50 (pM) [2]: 37 pM
B4: [N-terminal(C20 diacid-gGlu), des1, 12K, 23Y, 25K, 30S, 31G, 33Y]mimylin (peptide)
peptide: {C20 diacid-γGlu}-ASELSTAALGKLSAELHELATYPKTETGSGSY-NH2
SMILES: CC(C)C[C@H](NC(=O)[C@H](C)NC(=O)[C@H](C)NC(=O)[C@@H](NC(=O)[C@H](CO)NC(=O)[C@H](CC(C)C)NC(=O)[C@H](CCC(=O)O)NC(=O)[C@H](CO)NC(=O)[C@H](C)NC(=O)CC[C@H](NC(=O)CCCCCCCCCCCCCCCCCCC(=O)O)C(=O)O)[C@@H](C)O)C(=O)NCC(=O)N[C@@H](CCCCN)C(=O)N[C@@H](CC(C)C)C(=O)N[C@@H](CO)C(=O)N[C@@H](C)C(=O)N[C@@H](CCC(=O)O)C(=O)N[C@@H](CC(C)C)C(=O)N[C@@H](Cc1c[nH]cn1)C(=O)N[C@@H](CCC(=O)O)C(=O)N[C@@H](CC(C)C)C(=O)N[C@@H](C)C(=O)N[C@H](C(=O)N[C@@H](Cc1ccc(O)cc1)C(=O)N1CCC[C@H]1C(=O)N[C@@H](CCCCN)C(=O)N[C@H](C(=O)N[C@@H](CCC(=O)O)C(=O)N[C@H](C(=O)NCC(=O)N[C@@H](CO)C(=O)NCC(=O)N[C@@H](CO)C(=O)N[C@@H](Cc1ccc(O)cc1)C(N)=O)[C@@H](C)O)[C@@H](C)O)[C@@H](C)O

hAmylin-R funct. EC50 (pM) [1]: 16 pM
hCTR funct. EC50 (pM) [2]: 5 pM
B6: [N-terminal(C18 diacid), 9I]mimylin (peptide)
peptide: {C18 diacid}-EASELSTAILGRLSAELHELATLPRTETGPESP-NH2
SMILES: CC[C@H](C)[C@H](NC(=O)[C@H](C)NC(=O)[C@@H](NC(=O)[C@H](CO)NC(=O)[C@H](CC(C)C)NC(=O)[C@H](CCC(=O)O)NC(=O)[C@H](CO)NC(=O)[C@H](C)NC(=O)[C@H](CCC(=O)O)NC(=O)CCCCCCCCCCCCCCCCC(=O)O)[C@@H](C)O)C(=O)N[C@@H](CC(C)C)C(=O)NCC(=O)N[C@@H](CCCNC(=N)N)C(=O)N[C@@H](CC(C)C)C(=O)N[C@@H](CO)C(=O)N[C@@H](C)C(=O)N[C@@H](CCC(=O)O)C(=O)N[C@@H](CC(C)C)C(=O)N[C@@H](Cc1c[nH]cn1)C(=O)N[C@@H](CCC(=O)O)C(=O)N[C@@H](CC(C)C)C(=O)N[C@@H](C)C(=O)N[C@H](C(=O)N[C@@H](CC(C)C)C(=O)N1CCC[C@H]1C(=O)N[C@@H](CCCNC(=N)N)C(=O)N[C@H](C(=O)N[C@@H](CCC(=O)O)C(=O)N[C@H](C(=O)NCC(=O)N1CCC[C@H]1C(=O)N[C@@H](CCC(=O)O)C(=O)N[C@@H](CO)C(=O)N1CCC[C@H]1C(N)=O)[C@@H](C)O)[C@@H](C)O)[C@@H](C)O

hAmylin-R funct. EC50 (pM) [1]: 67 pM
hCTR funct. EC50 (pM) [2]: 70 pM
B7: [N-terminal(C20 diacid-gGlu), des1, 4G, 9V, 23Y, 30S, 31G, 32T, 33Y]mimylin (peptide)
peptide: {C20 diacid-γGlu}-ASGLSTAVLGRLSAELHELATYPRTETGSGTY-NH2
SMILES: CC(C)C[C@H](NC(=O)CNC(=O)[C@H](CO)NC(=O)[C@H](C)NC(=O)CC[C@H](NC(=O)CCCCCCCCCCCCCCCCCCC(=O)O)C(=O)O)C(=O)N[C@@H](CO)C(=O)N[C@H](C(=O)N[C@@H](C)C(=O)N[C@H](C(=O)N[C@@H](CC(C)C)C(=O)NCC(=O)N[C@@H](CCCNC(=N)N)C(=O)N[C@@H](CC(C)C)C(=O)N[C@@H](CO)C(=O)N[C@@H](C)C(=O)N[C@@H](CCC(=O)O)C(=O)N[C@@H](CC(C)C)C(=O)N[C@@H](Cc1c[nH]cn1)C(=O)N[C@@H](CCC(=O)O)C(=O)N[C@@H](CC(C)C)C(=O)N[C@@H](C)C(=O)N[C@H](C(=O)N[C@@H](Cc1ccc(O)cc1)C(=O)N1CCC[C@H]1C(=O)N[C@@H](CCCNC(=N)N)C(=O)N[C@H](C(=O)N[C@@H](CCC(=O)O)C(=O)N[C@H](C(=O)NCC(=O)N[C@@H](CO)C(=O)NCC(=O)N[C@H](C(=O)N[C@@H](Cc1ccc(O)cc1)C(N)=O)[C@@H](C)O)[C@@H](C)O)[C@@H](C)O)[C@@H](C)O)C(C)C)[C@@H](C)O

From US20160272683A1 (Novo Nordisk, published 2016)
